Measurements published in the supplement of paper PMC10567573.

B1: ZER1 (parent)
chain: PILRLLPQGISPVSQHWATWALYN
B2: ZNF511 (parent)
chain: YEHHYHTLHGNVCSFCKRAFPSGH

Variants of: B1
Assay: protein stability index of a GFP-peptide fusion (GPS, HEK-293T) (PSI 1-6); higher = more stable
Settings: c terminus: a fixed tail appended
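Note: lentivirally expressed fusions sorted by FACS into six bins by GFP to DsRed ratio, PSI derived from sequencing read proportions per bin multiplied by bin number.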

Protein stability index of substitutions, site by site:
R4: V 2.42 | S 2.24 | K 3.47 | H 2.46 | Q 1.4 | Y 3.25 | N 2.38 | I 3.46 | F 4.37 | L 1.38 | T 3.54 | W 2.54
P1: T 2.19 | S 2.07 | K 2.4 | H 2.39 | F 3.24 | A 5.68 | R 2
L3: E 1.36 | A 3.7 | Y 1.06 | G 1.44 | N 2.54 | I 1.5 | R 1.95 | W 1.02 | H 1.75 | V 1.78 | Q 1.62 | T 2.52 | P 1.04 | D 3.05
I2: P 3.08 | E 2.45 | R 3.12 | C 2.98 | N 1.5 | D 2.52 | H 1.17 | T 2.92 | Q 1.26 | K 2.04 | A 2.46
L6: D 2.56 | P 2.83 | E 2.53 | F 3.51 | R 3.26 | Q 1.46 | C 2.88
L5: C 3.09 | F 2.22 | K 1.25 | N 1.99 | D 2.04 | R 1.84 | H 2.07 | Y 1.77 | T 1.14 | G 3.62 | M 3.4 | V 3.75 | Q 1.95 | A 1.65

Variants of: B2
Assay: as above
Settings: c terminus: a fixed tail appended

Protein stability index: each site, then its substitutions
N11: S 1.95 | W 2.17 | G 2.12 | K 2.31 | H 2.21 | F 2.6 | M 2.68 | E 2.22 | P 2.6 | I 1.83 | A 2.64 | R 2.62 | L 1.77 | D 2.75 | Y 1.99 | T 2.68 | V 1.87 | Q 2.2 | C 2.73
V12: E 3.67 | T 2.44 | L 2.06 | D 3.41 | Q 2.66 | H 2.4 | N 2.73 | G 1.84 | I 2.3 | R 2.24 | K 2 | W 2.14 | Y 2.13 | F 2.05 | M 2.17 | S 2.41 | C 2.02 | A 2.44 | P 2.31
A19: F 2.84 | L 2.36 | S 2.28 | N 2.37 | H 2.85 | V 1.99 | T 2.29 | D 2.42 | E 2.13 | C 2.19 | R 2.37 | P 1.89 | Y 2.25 | M 2.29 | G 1.96 | I 1.85 | W 2.25 | Q 1.47 | K 2.11
H24: S 2.46 | C 2.07 | F 2.5 | K 1.57 | Y 1.65 | A 2.13 | E 2.57 | N 2.39 | R 2.08 | I 1.78 | P 2.08 | G 2.09 | L 2.02 | Q 2.08 | W 2.43 | M 2.17 | D 2.35 | T 2.24 | V 2.25
P21: S 2.48 | L 2.36 | F 2.13 | I 2.29 | W 1.61 | Y 1.77 | Q 1.97 | K 1.9 | C 3.6 | H 2.32 | G 2.31 | T 2.38 | M 2.57 | A 2.6 | V 2.34 | R 1.91 | N 1.97 | D 2.88 | E 2.2
S14: D 2.4 | T 2.23 | L 2.04 | I 2.53 | H 2.31 | A 2.94 | R 2.87 | G 1.88 | N 2.57 | M 2.3 | C 2.39 | E 2.53 | Y 3.38 | K 2.3 | Q 2.88 | W 2.53 | P 3.3 | V 1.38 | F 2.03
F20: L 2.27 | M 2.38 | A 2.41 | E 2.4 | R 2.12 | K 2.64 | D 3.27 | H 3.37 | G 2.82 | Q 2.37 | I 2.23 | V 2.58 | W 2.42 | T 2.68 | Y 2.25 | C 2.55 | P 2.34 | S 2.96 | N 3.13
C13: M 1.83 | V 1.92 | W 1.52 | L 1.5 | H 1.9 | R 2.17 | D 2.29 | T 1.97 | S 2.22 | Q 2.63 | Y 1.78 | A 2.18 | F 1.5 | G 2.54 | E 2.36 | I 2.6 | P 2.11 | N 2.67 | K 2.04
G23: P 2.27 | W 1.62 | F 1.83 | A 2.1 | Q 1.93 | I 1.86 | C 2.33 | M 1.92 | L 1.63 | E 1.86 | Y 1.97 | R 1.98 | V 1.61 | D 2.31 | H 1.38 | N 2.51 | T 2.16 | K 2.01 | S 2.7
R18: E 2.14 | Y 2.24 | N 2.37 | H 2.29 | D 2.46 | P 2.87 | L 2.17 | F 1.94 | I 1.6 | W 1.79 | V 1.73 | K 2.23 | S 2.26 | T 2.29 | G 2.27 | C 1.89 | A 2.06 | M 1.96 | Q 1.53
F15: N 2.72 | M 2.54 | G 2.93 | L 2.32 | V 2 | Q 3.25 | S 2.39 | R 2.35 | W 2.96 | P 2.01 | K 2.21 | I 2.38 | A 2.76 | T 2.99 | E 2.79 | C 3.02 | D 2.48 | H 2.39 | Y 2.31
G10: V 1.87 | W 2.29 | Y 2.46
C16: N 2.12 | V 2.14 | Q 2.26 | K 2.35 | P 2.02 | H 1.82 | I 1.86 | G 2 | E 2.5 | S 1.71 | L 2.1 | T 2.4 | R 2.17 | A 2.05 | F 1.99 | D 2.17 | W 1.62 | M 2.01 | Y 2.09
K17: I 1.84 | Q 2.41 | R 2.2 | D 2.5 | P 1.78 | L 2.4 | S 2.22 | N 2.18 | W 1.3 | V 1.87 | G 2.61 | E 2.59 | H 2.18 | F 1.84 | A 2.23 | C 1.89 | M 1.77 | T 2.02 | Y 1.77
S22: Q 1.45 | Y 1.7 | R 2.03 | W 1.47 | V 1.84 | C 2.69 | P 2.67 | H 2.99 | N 3.01 | G 2.02 | T 2.27 | E 2.44 | I 2.24 | D 2.33 | M 2.89 | F 2.15 | K 1.8 | A 2.08 | L 2.87
